Measurements reported in US6214868A, “Method for preventing or treating coronary restenosis with catechin” (Sam-A Pharm. Co., Ltd., priority 2000, dated 2001).

Tests used:
Format in all cases: cell-based
[1] = test system: rat VSMCs; experiment: Inhibition of VSMC growth, 3H-thymidine DNA incorporation, in the presence of PDGF-BB; conditions: in words; 50 ng/ml PDGF-BB, control data
Protocol: Each rat was suffocated with CO2, and its chest was disinfected and incised to remove the arteriae aorta. All operative apparatus and glass articles were autoclaved and all operations were conducted on a clean bench. The arteriae aorta was dipped in physiological salt solution(PSS) and its adipose tissues were removed. The resulting arteriae aorta was treated with 0.2% collagenase in an incubator maintained at 37° C. for 30 minutes. Its endothelium and adventitia were removed and the resulting arteriae aorta was ground up. A complete DMEM (DMEM containing 10% FBS, an antibiotic and glutamine) containing 0.2% collagenase was added thereto and the resulting mixture was kept at 37° C. for 4 hours while shaking with an orbital shaker.
The resulting mixture was centrifuged at 1,500×g for 5 minutes to remove the collagenase and the cell precipitate was suspended in an appropriate amount of complete DMEM. […]
The wells were washed twice with a serum-free medium, Hunger medium(Gibco), and fresh Hunger medium was added thereto. […] A 50 μl portion of the resulting reaction mixture was subjected to protein quantification. Further, a 100 μl portion of the resulting reaction mixture was added to 5 ml of a cocktail solution to measure the radioactivity, thereby determining the amount of ^3 H-thymidine incorporated into the cell. […]

[2] = test system: p42^mapk; experiment: Phosphorylation of p42^mapk in rat VSMCs (western blotting); conditions: in words; western blot
Protocol: (§1) The resulting culture was incubated for 24 hours. 50 ng/ml of PDGF-BB was added thereto and kept for 5 minutes. […] The above procedure was also repeated without PDGF-BB treatment.
(§2) The VSMC was lysed and the VSMC lysate(corresponding amount to 70 μg proteins) was subjected to SDS-PAGE. The proteins separated on the gel was transferred to a nitrocellulose membrane and the membrane was saturated with Tris buffered saline(TBS) containing 3% milk protein. A primary antibody(Promega, dilution ratio: 1:5,000) for catalytically activated p44^mapk /p42^mapk whose threonine and tyrosine residues are phosphorylated, was added thereto and kept over night. The membrane was washed three times with TBS containing 0.05% Tween 20. The membrane was reacted with a horseradish peroxidase-conjugated anti-IgG secondary antibody and developed using Amersham ECL kit. Linearity of MAPK concentration-ECL signal correlation was examined using standard p42, a recombinant, activated MAPK(Upstate Biotechnology), and serially diluted artery tissue homogenate. Bands on the X-ray film were quantified using Molecular Dynamics personal laser densitometer.

[3] = test system: p44^mapk; experiment: Phosphorylation of p44^mapk in rat VSMCs (western blotting); conditions: in words; western blot
Protocol: as §1, §2

B1: PDGF-BB: platelet derived growth factor(PDGF)-BB (protein, UniProt P01127 82-190, looked up)
Platelet-derived growth …: SLGSLTIAEPAMIAECKTRTEVFEISRRLIDRTNANFLVWPPCVEVQRCSGCCNNRNVQCRPTQVQLRPVQVRKIEIVRKKPIFKKATVTLEDHLACKCETVAAARPVT
modifications: BB homodimer
VSMC growth on PDGF-BB treatment [1]: greatly enhances the VSMC growth | phosphorylated p44^mapk /p42^mapk band density (p42) [2]: enhanced density as compared with the blank | phosphorylated p44^mapk /p42^mapk band density (p44) [3]: enhanced density as compared with the blank
